Source: US20200283478A1 (Genentech, published 2020)
Bridge positions count the residues as written; N and C are the ends. Square brackets hold non-standard residues; d marks the D form. Ends that are not written are not given here. Trp(6-F) = N[C@@H](Cc1c[nH]c2cc(F)ccc12)C(=O)O; hArg = N=C(N)NCCCC[C@H](N)C(=O)O

Key:
[1] = molecular target: T1, proprotein convertase subtilisin/kexin type 9 (PCSK9) (human, UniProt Q8NBP7 31-692); test: phage spot ELISA
T1 construct: His-tagged full-length PCSK9 in TR-FRET and SPR, biotinylated in phage ELISA; secreted protein is autoprocessed (prodomain plus catalytic/CRD chain starting at S153); also called rec.PCSK9; His-PCSK9

PCSK9Δhelix = molecular target: T2, PCSK9Δhelix (human, Chemically biotinylated in the phage ELISAs; the site is not given.); test: phage spot ELISA
T2 construct: construct M1-Q692 with engineered TEV site, cleaved by TEV; also called His-PCSK9Δhelix; open groove PCSK9Δhelix

His-tagged PCSK9Δhelix = molecular target: T3, His-tagged PCSK9Δhelix (human, UniProt Q8NBP7 31-152; Q8NBP7 168-692); test: TR-FRET competition; His-PCSK9Δhelix, competitor Ab20
T3 construct: Construct M1-Q692 with engineered TEV site, cut by TEV protease; new N-terminus of the catalytic domain is S-A168; also called His-PCSK9Δhelix
Experimental: (§1) Signal generation in the PCSK9 binding assays was dependent upon the binding interaction to bring into close proximity the His-tag on the PCSK9 and the Fc-tag on the ligand. Anti-His-APC was bound to the His-tag, and anti-Fc-europium was bound to the Fc-tag.
(§2) Compounds were solubilized and dilutions were prepared in DMSO. […] The plate was centrifuged to mix the well contents and allowed to incubate for 30 min. […] The normalized TR-FRET ratios were plotted as a function of the compound concentrations, and the IC₅₀ values were determined using a 4-parameter logistic regression.

[2] = molecular target: T4, His-tagged, full-length PCSK9 (human, UniProt Q8NBP7 31-692); test: TR-FRET competition; His-PCSK9, competitor EGF(A)-Fc
T4 construct: The secreted protein is autocleaved into a prodomain and a catalytic/Cys-rich chain that starts at S153; also called His-PCSK9
T4 sequence (Q8NBP7 other isoform, or with tags, fused parts or gaps limits assumed): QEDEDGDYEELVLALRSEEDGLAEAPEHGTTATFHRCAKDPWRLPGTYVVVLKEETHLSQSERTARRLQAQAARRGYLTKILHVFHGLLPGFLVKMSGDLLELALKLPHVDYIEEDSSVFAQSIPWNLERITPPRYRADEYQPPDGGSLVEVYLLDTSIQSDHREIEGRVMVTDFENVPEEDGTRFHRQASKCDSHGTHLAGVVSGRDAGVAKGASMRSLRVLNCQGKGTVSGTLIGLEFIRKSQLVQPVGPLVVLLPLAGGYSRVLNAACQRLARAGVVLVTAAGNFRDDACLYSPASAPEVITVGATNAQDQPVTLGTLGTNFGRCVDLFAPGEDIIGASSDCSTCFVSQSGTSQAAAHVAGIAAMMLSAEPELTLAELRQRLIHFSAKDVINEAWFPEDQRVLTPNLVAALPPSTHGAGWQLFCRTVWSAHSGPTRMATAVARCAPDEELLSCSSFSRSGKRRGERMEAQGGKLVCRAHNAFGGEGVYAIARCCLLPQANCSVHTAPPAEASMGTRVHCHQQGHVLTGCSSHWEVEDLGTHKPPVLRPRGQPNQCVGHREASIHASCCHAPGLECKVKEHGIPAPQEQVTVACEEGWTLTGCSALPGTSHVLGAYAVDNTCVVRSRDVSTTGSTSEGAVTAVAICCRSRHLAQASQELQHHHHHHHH
Experimental: as §1, §2

T2 sequence (prodomain, as listed by the source mutant limits assumed, chain 1 of 2): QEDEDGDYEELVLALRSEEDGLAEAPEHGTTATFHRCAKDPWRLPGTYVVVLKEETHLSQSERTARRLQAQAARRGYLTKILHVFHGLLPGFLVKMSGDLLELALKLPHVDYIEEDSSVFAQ
T2 sequence (chain, as listed by the source mutant limits assumed, chain 2 of 2): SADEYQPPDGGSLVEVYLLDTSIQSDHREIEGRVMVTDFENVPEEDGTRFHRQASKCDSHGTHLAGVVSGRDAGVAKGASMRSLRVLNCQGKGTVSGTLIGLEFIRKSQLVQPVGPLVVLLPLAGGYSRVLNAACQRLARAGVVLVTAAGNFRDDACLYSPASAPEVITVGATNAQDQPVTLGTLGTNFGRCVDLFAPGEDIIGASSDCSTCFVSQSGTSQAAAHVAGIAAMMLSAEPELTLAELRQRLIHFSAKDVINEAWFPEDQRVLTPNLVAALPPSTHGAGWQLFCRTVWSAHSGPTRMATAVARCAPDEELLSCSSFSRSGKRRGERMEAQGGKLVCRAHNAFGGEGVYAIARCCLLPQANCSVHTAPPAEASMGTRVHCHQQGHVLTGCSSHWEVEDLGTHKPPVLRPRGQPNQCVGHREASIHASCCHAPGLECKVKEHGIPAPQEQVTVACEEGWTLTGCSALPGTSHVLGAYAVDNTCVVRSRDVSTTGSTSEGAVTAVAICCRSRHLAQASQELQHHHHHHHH
T3 sequence (Q8NBP7 31-152, stated change not applied, chain 1 of 2): as the sequence (prodomain, as listed by the source mutant limits assumed, chain 1 of 2) above
T3 sequence (Q8NBP7 other isoform, or with tags, fused parts or gaps mutant, chain 2 of 2): as the sequence (chain, as listed by the source mutant limits assumed, chain 2 of 2) above
T1 sequence (Q8NBP7 other isoform, or with tags, fused parts or gaps limits assumed): as the sequence (Q8NBP7 other isoform, or with tags, fused parts or gaps limits assumed) above

| ELISA [1] | s/n ratio [1] | ELISA (PCSK9Δhelix) | s/n ratio (PCSK9Δhelix) | IC50 (His-tagged PCSK9Δhelix) [µM] | IC50 [2] [µM] | Binder |
| --- | --- | --- | --- | --- | --- | --- |
| 2.77 | 25.6 | 2.73 | 25.1 |  |  | TAFTSWEEYLDWVGSGPRTYLRGLVD [SEQ ID NO 340] |
| 1.45 | 12.8 | 2.61 | 24.4 |  |  | TAFTSWEEYLDWVGSGGVLGVGGMWIA [SEQ ID NO 335] |
| 2.79 | 19.5 | 2.69 | 17.2 |  |  | TAFTSWEEYLDWVGSGSYRGAWSVFGGSTD [SEQ ID NO 336] |
|  |  |  |  | 0.1 | 1.6 | Ac-TVFTS[Trp(6-F)]EEYLDWVGSGCRLPWNLQRIGLPC-NH2 (disulfide 17-30 (inferred)) [Compound 241] |
|  |  |  |  | 13 | 1.3 | Ac-SFAFPGWNLV[hArg]IGLLR-NH2 (SMILES CC[C@H](C)[C@H](NC(=O)[C@H](CCCCNC(=N)N)NC(=O)[C@@H](NC(=O)[C@H](CC(C)C)NC(=O)[C@H](CC(N)=O)NC(=O)[C@H](Cc1c[nH]c2ccccc12)NC(=O)CNC(=O)[C@@H]1CCCN1C(=O)[C@H](Cc1ccccc1)NC(=O)[C@H](C)NC(=O)[C@H](Cc1ccccc1)NC(=O)[C@H](CO)NC(C)=O)C(C)C)C(=O)NCC(=O)N[C@@H](CC(C)C)C(=O)N[C@@H](CC(C)C)C(=O)N[C@@H](CCCNC(=N)N)C(N)=O) [Compound 228] |
|  |  |  |  | 13 | 0.93 | Ac-SFAFPGWNLK[hArg]IGLLR-NH2 (SMILES CC[C@H](C)[C@H](NC(=O)[C@H](CCCCNC(=N)N)NC(=O)[C@H](CCCCN)NC(=O)[C@H](CC(C)C)NC(=O)[C@H](CC(N)=O)NC(=O)[C@H](Cc1c[nH]c2ccccc12)NC(=O)CNC(=O)[C@@H]1CCCN1C(=O)[C@H](Cc1ccccc1)NC(=O)[C@H](C)NC(=O)[C@H](Cc1ccccc1)NC(=O)[C@H](CO)NC(C)=O)C(=O)NCC(=O)N[C@@H](CC(C)C)C(=O)N[C@@H](CC(C)C)C(=O)N[C@@H](CCCNC(=N)N)C(N)=O) [Compound 232] |
| 2.73 | 24.6 |  |  |  |  | TAFTSWEEYLDWVGSGCMEAWQCSLA [SEQ ID NO 337] |
| 2.7 | 22.9 | 2.31 | 22.6 |  |  | TAFTSWEEYLDWVGSGQISYLRNA (not fully specified; also: Q (1) D-amino acid, place in chain unclear (phage-displayed)) [SEQ ID NO 342] |
| 2.72 | 23.6 | 2.81 | 23 |  |  | TAFTSWEEYLDWVGSGDCNLWGDDGKYRLCF [SEQ ID NO 333] |
| 2.66 | 23.9 | 2.74 | 25.1 |  |  | TAFTSWEEYLDWVGSGCVKVGLSWIGDCNS [SEQ ID NO 334] |
| 3.07 | 22.1 | 3.05 | 20.2 |  |  | TAFTSWEEYLDWVGSGCWTYLRGGCSVT [SEQ ID NO 339] |
|  |  |  |  | 1.2 | 32 | WNLV[hArg]IGQR (also: further groups not given here, Structure printed only as a drawing) [Compound 239] |
|  |  |  |  | 0.92 | 31 | WNLV[hArg]IGNR (also: further groups not given here, Structure printed only as a drawing) [Compound 240] |
|  |  |  |  | 8.1 | 0.81 | Ac-MESFPGWNLV[hArg]IGLLR-NH2 (SMILES CC[C@H](C)[C@H](NC(=O)[C@H](CCCCNC(=N)N)NC(=O)[C@@H](NC(=O)[C@H](CC(C)C)NC(=O)[C@H](CC(N)=O)NC(=O)[C@H](Cc1c[nH]c2ccccc12)NC(=O)CNC(=O)[C@@H]1CCCN1C(=O)[C@H](Cc1ccccc1)NC(=O)[C@H](CO)NC(=O)[C@H](CCC(=O)O)NC(=O)[C@H](CCSC)NC(C)=O)C(C)C)C(=O)NCC(=O)N[C@@H](CC(C)C)C(=O)N[C@@H](CC(C)C)C(=O)N[C@@H](CCCNC(=N)N)C(N)=O) [Compound 229] |
|  |  |  |  | 50 | 3.1 | Ac-MESFPGWNLK[hArg]IGLLR-NH2 (SMILES CC[C@H](C)[C@H](NC(=O)[C@H](CCCCNC(=N)N)NC(=O)[C@H](CCCCN)NC(=O)[C@H](CC(C)C)NC(=O)[C@H](CC(N)=O)NC(=O)[C@H](Cc1c[nH]c2ccccc12)NC(=O)CNC(=O)[C@@H]1CCCN1C(=O)[C@H](Cc1ccccc1)NC(=O)[C@H](CO)NC(=O)[C@H](CCC(=O)O)NC(=O)[C@H](CCSC)NC(C)=O)C(=O)NCC(=O)N[C@@H](CC(C)C)C(=O)N[C@@H](CC(C)C)C(=O)N[C@@H](CCCNC(=N)N)C(N)=O) [Compound 233] |
| 2.71 | 25.1 | 2.65 | 29.2 |  |  | TAFTSWEEYLDWVGSGQCYPWCRL [SEQ ID NO 338] |
|  |  |  |  | 24 | 2.5 | Ac-ESFPGWNLV[hArg]IGLLR-NH2 (SMILES CC[C@H](C)[C@H](NC(=O)[C@H](CCCCNC(=N)N)NC(=O)[C@@H](NC(=O)[C@H](CC(C)C)NC(=O)[C@H](CC(N)=O)NC(=O)[C@H](Cc1c[nH]c2ccccc12)NC(=O)CNC(=O)[C@@H]1CCCN1C(=O)[C@H](Cc1ccccc1)NC(=O)[C@H](CO)NC(=O)[C@H](CCC(=O)O)NC(C)=O)C(C)C)C(=O)NCC(=O)N[C@@H](CC(C)C)C(=O)N[C@@H](CC(C)C)C(=O)N[C@@H](CCCNC(=N)N)C(N)=O) [Compound 227] |
|  |  |  |  | 24 | 2.3 | Ac-DSYPGWNLV[hArg]IGLLR-NH2 (SMILES CC[C@H](C)[C@H](NC(=O)[C@H](CCCCNC(=N)N)NC(=O)[C@@H](NC(=O)[C@H](CC(C)C)NC(=O)[C@H](CC(N)=O)NC(=O)[C@H](Cc1c[nH]c2ccccc12)NC(=O)CNC(=O)[C@@H]1CCCN1C(=O)[C@H](Cc1ccc(O)cc1)NC(=O)[C@H](CO)NC(=O)[C@H](CC(=O)O)NC(C)=O)C(C)C)C(=O)NCC(=O)N[C@@H](CC(C)C)C(=O)N[C@@H](CC(C)C)C(=O)N[C@@H](CCCNC(=N)N)C(N)=O) [Compound 230] |
| 2.59 | 27 | 2.29 | 24.4 |  |  | TAFTSWEEYLDWVGSGQTTYLRVSSS [SEQ ID NO 341] |
|  |  |  |  | 22 | ≥ 50 | WNLV[hArg]IG-NH2 (N-terminus assumed; SMILES CC[C@H](C)[C@H](NC(=O)[C@H](CCCCNC(=N)N)NC(=O)[C@@H](NC(=O)[C@H](CC(C)C)NC(=O)[C@H](CC(N)=O)NC(=O)[C@@H](N)Cc1c[nH]c2ccccc12)C(C)C)C(=O)NCC(N)=O, also called WNLV(homoR)IG-NH2) [Compound 236] |
